Test results published in the nanobody polyreactivity screen of Harvey et al. (2022).

assay: yeast display, Sf9 membrane polyspecificity reagent, FACS + sequencing; frameworks hold sequencing errors
In short: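 Polyreactivity labels are assigned by the sorting gate from which each nanobody was recovered. The gates were low and high (top ~1%), set on anti-HA fluorescence for expression and streptavidin fluorescence for reagent binding. Before sorting, galactose-induced (36–48 hours) yeast display cells were stained for 1 hour at 4 °C with 10% biotinylated, detergent-solubilized Sf9 membrane reagent.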

Sequence	polyreactivity (PSR sort gate)
QVQLVESGGGLVQAGGSLRLSCAASGITFFGYAMGWYRQAPGKERELVAGISRSTGRTYYADSVKGRFTISRDNAKNTVYLHMNSLKPEDTAVYYCNAELYPWPGVVRYNYWGQGTQVTVSS	high polyreactivity
QVQLVESGGGLVQAGGSLRLSCAASGITFFNYAMGWYRQAPGKERELVAAISGGSTYYADSVKGRFTISRDNAKNTVYLQMNSLKPEDTAVYYCAARVASKYLVYRKRPSRFDYWGQGTQVTVSS	low polyreactivity
QVQLVESGGGLVQAGGSLRLSCAASGITFFRNAMGWYRQAPGKERELVAGISTTGGRTYYADSVKGRFTISRDKAKNTVYLQMNSLKPEDTAVYYCNTLVPRAGREYDYWGQGTQVTVSS	high polyreactivity
QVQLVESGGGLVQAGGSLRLSCAASGITFFRNAMGWYRQAPGKERELVAVITYSGGRTSYADSVKGRFTISRDNAKNTVYLQMNSLKPEDTAVYYCATEKWQSSPGYTYYFVEYDYWGQGTQVTVSS	low polyreactivity
QVQLVESGGGLVQAGGSLRLSCAASGITFFSYAMGWYREAPGKERELVAAISRRTGSTYYADSVKGRFTISRDNGMNTVFLQMMSLKPEDTAVYYCAARLPGTRYPYDYWGQGTQVTVSS	high polyreactivity
QVQLVESGGGLVQAGGSLRLSCAASGITFFTNVMGWYRPAPGKERELVAAISRSGTSTYYADSVKGRFTISRDNAKNTVYLQMNSLKPEDTAVYYCNADQIRGDGDYWGQGTQVTVSS	high polyreactivity
QVQLVESGGGLVQAGGSLRLSCAASGITFFWNAMGWYRTAPGKERELVAAISSGAGTTYADSVKGRFTISRDNAKNTVYLQMNSLKPEDTAVYYCAARRYRYAYGPYNYWGQGTQVTVSS	low polyreactivity
QVQLVESGGGLVQAGGSLRLSCAASGITFFYNAMGWYRQAPGKERELVADITNSGSTYYADSVKGRFTISRDNAKNTVYLQMNSLKPEDTAVYYCAAGQAYDYFVYYPDDYWGQGTQVTVSS	low polyreactivity
QVQLVESGGGLVQAGGSLRLSCAASGITFFYYAMGWYRQAPGKEMELVAAIRYYGTSTYADSVKGRFTISRDNAKNTVYLQMNSLKPEDTAVYYCAAVFWFVGSLYDYWGQGTQVTVSS	low polyreactivity
QVQLVESGGGLVQAGGSLRLSCAASGITFGANTMGWYRQAPGKERELVADITVTGDGTYYADSVKGRFTISRDNAKNTVYLQMNSLKPEDTAVYYCAADFWLVSFQWDFEYDYWGQGTQVTVSS	low polyreactivity
QVQLVESGGGLVQAGGSLRLSCAASGITFGAYAMGWYRQAPGKERELVAVITRGADTYYADSVKGRFTISRDNAKNTVYLQMNSLKPEDTAVYYCAAEIDLPYYYGSDDDDYWGQGTQVTVSS	high polyreactivity
QVQLVESGGGLVQAGGSLRLSCAASGITFGDNVKGWYRQAPGKERELVAAISRIGDDTYYADSVKGRFTISRDNAKNTVYLQMNSLKPEDTAVYYCAAEYIYYIWSSYIDWDYYWVQGTQVTVSS	low polyreactivity
QVQLVESGGGLVQAGGSLRLSCAASGITFGDYAMGWDRQAPGKERELVAGINWSGDGTYYSDSVKGRFTISRDNAKNTFYLQMNSLKPEDTAVYYCAAETFYDYGGYDYWGQGTQVTVSS	low polyreactivity
QVQLVESGGGLVQAGGSLRLSCAASGITFGFNAMVWYRQAPGKETELVAAITYRGGSTYYADSVKGRFTISRDNAKNTVYLQMNSLKPEDTAVYYCAADIGRHTDNYDPRYDYWGQGTHVTVSS	low polyreactivity
QVQLVESGGGLVQAGGSLRLSCAASGITFGPYAIGWYRQAPGKERELVAAISAGGGSTYYADSVKGRFTISRDNAKNSVYLQMNSLKPEDTAVYYCAAYLLHHYGGPEYYYWGQGTQVTVSS	high polyreactivity
QVQLVESGGGLVQAGGSLRLSCAASGITFGPYAMGWYRQAPGKERELVATISSSGGSTYYADSVKGRFTISRDNAKNTVYLQMNSLKPEDTAVYYCNAGYAPYLGAYDYWGQGTQVTVSS	low polyreactivity
QVQLVESGGGLVQAGGSLRLSCAASGITFGRNTLGRYRQAPGKVRELVAAIDSGGNTYADSVKGRFTISRDNAKNTVYLQMNSLKPEDTAVYYCAVDGCEFSSYGYWGQGTQGTVSS	low polyreactivity
QVQLVESGGGLVQAGGSLRLSCAASGITFGRNTMGWYRQAPGKERELVAAIDSGGNTYADSVKGRFTISRDNAKNTVYLQMNSLKPEDTAVYYCAKDVYSYYYPYRYESWGQGTQVTVSS	low polyreactivity
QVQLVESGGGLVQAGGSLRLSCAASGITFGRNTMGWYRQAPGKERELVAAIDSGGNTYADSVKWRFTISRDNAKNTVYLQMNSLKPEDTAVYYCAADIGSWYDYWGQGTQVTVSS	low polyreactivity
QVQLVESGGGLVQAGGSLRLSCAASGITFGRNTMGWYRQAPGNERELVAAIDSGGNTYADSVKGRFTISRDNAKNTFYLQMNSLKPEDTAVYYCCVDGGEFSSYGYWGQGTQVTVSS	low polyreactivity

Sequence	polyreactivity (PSR sort gate)
QVQLVESGGGLVQAGGSLRLSCAASGITFGRNTMGWYRQAPRKERELVAAIDSGGNTYADSVKGRFTISRDNAKNTVYLQMNSLKPEDTAVYYCAVDGGEFSSYGYWGQGTQVTVSS	low polyreactivity
QVQLVESGGGLVQAGGSLRLSCAASGITFGSNAMGWYRQAPGKERELVAAIRYSTGSTYYADSVKGRFTISRDNAKNTVYLQMNRLKPEDTAVYYCAKGKNRYTWYGMGYWGQGTQVTVSS	high polyreactivity
QVQLVESGGGLVQAGGSLRLSCAASGITFGSYAMGWYRQAPGKEREFVAAISLSGGNTYYADSVKGRFTISRDNAKNTVYLQMNSLKPEDTAVYYCAADYEYSGYGYWGQGTQVTGSS	high polyreactivity
QVQLVESGGGLVQAGGSLRLSCAASGITFGVYGMGWYRQAPGKERELVAAIDQSGDSTYYADSVKGRFTISRDNAKNTVYLQMNSLKPEDTAVYYCAAQSYDYWYDYDYWGQGTQVTVSS	high polyreactivity
QVQLVESGGGLVQAGGSLRLSCAASGITFGWNVAMGWYRQAPGKERELVATITNGGSTKYADSVKGRFTISRDNAKNTVYLQMNSLKPEDTAVYYCAARVYHRFEWFHQYDYWGQGTQVTVSS	high polyreactivity
QVQLVESGGGLVQAGGSLRLSCAASGITFGWYAMGWYRQAPGKERELVASISSSGSTNYADSVKGRFTISRDNAKNTVYLQMNSLKPEDTAVYYCNKDYLLRHYYIYVIEGDYWGQGTQVTVSS	low polyreactivity
QVQLVESGGGLVQAGGSLRLSCAASGITFGYYAMGWYRPAPGKERELVAAITYSGGSTYYADSVKGRFTISRDNAKNTVYLQMNCLKPEDTAVYDCAAERYVRVWVAGILHYDYWGQGTQVTVSS	low polyreactivity
QVQLVESGGGLVQAGGSLRLSCAASGITFGYYAMGWYRQAPGKERELVAAINWSGGSTYYADSVKGRFTISRDNAKNTVYLQMNSLKPEDTAVYYCNARPFNRYYREYDYWGQGTQVTVSS	high polyreactivity
QVQLVESGGGLVQAGGSLRLSCAASGITFGYYAMGWYRQAPGKERELVAAIRSSGGSTYYADSVKGRFTISRDNAKNTVYLQMNSLKPEDTAVYYCNARYRKSSRPGYEPYERYYWGQGTQVTVSS	high polyreactivity
QVQLVESGGGLVQAGGSLRLSCAASGITFGYYAMGWYRQAPGKERELVAAISSSGGSTYYADSVKGRFTISRDNAKNTVYLQMNSLKPEDTAVYFCAARYRKYSWYDYWGQGTQVTVSS	high polyreactivity
QVQLVESGGGLVQAGGSLRLSCAASGITFGYYAMGWYRQAPGKERELVAAITWSGGSTYYADSVKGRFTISRDNAKNTVYLQMNSLKPEDTAVYYCNADRFGRAHVYPEFDYWGQGTQVTVSS	low polyreactivity
QVQLVESGGGLVQAGGSLRLSCAASGITFHEYAMVWYRQAPGKERELVAAISASGGTTYYADSVKGRFTISRDNAKNTVYLQMNSLKPEDTAVYYCAALPLYITEYGYWGQGTQVTVSS	high polyreactivity
QVQLVESGGGLVQAGGSLRLSCAASGITFHGNTMGWYRQAPGKERELVAGISTSGSITYYADSVKGRFTISRDNAKKTVYLQMNSLKPEDTAVYYCAAVSHATQIAERGYWGQGTQVTVSS	low polyreactivity
QVQLVESGGGLVQAGGSLRLSCAASGITFHGYAMGWYRQAPGTERELVAAISDSGSSTYYADSVKGRFTISRDNAKNTVYLQMNSLKPEDTAVYYCAAVSGFYDQYDYWGQGTQVTVSS	low polyreactivity
QVQLVESGGGLVQAGGSLRLSCAASGITFHVYAMGWYRQAPGKEREFVASISWSGGSTYYADSVKGRFTISRDNAKNTVYLQMNSLKPEDTAVYYALLTVLSAVPYSVRYDYWGQGTQVTVSS	high polyreactivity
QVQLVESGGGLVQAGGSLRLSCAASGITFIPNAMGWYRQAPGKERELVAAISISGGRTYYADSVKGRFTISRDNAKNPVYLQMNSLKPEDTAVYYCAADRADFFVIRTIDPYDYWGQGTQVTVSS	low polyreactivity
QVQLVESGGGLVQAGGSLRLSCAASGITFIYYAMGWYRQAPGKEREFVAAISSRDDSTYYADSVKGRFTISRDNAKNTVYLQMNSLKPEDTAVYYCAAASSRRSAIKYGYWGQGTQVTVSS	high polyreactivity
QVQLVESGGGLVQAGGSLRLSCAASGITFIYYAMGWYRQAPGKEREFVAAITFRDGDTYYADSVKGRFTISRDNAKNTVYLQMNSLKPEDTAVYYCADTYWVYYYYPGYDYWGQGTQVTVSS	low polyreactivity
QVQLVESGGGLVQAGGSLRLSCAASGITFIYYAMGWYRQAPGKERELVAAISKSGGRTYYADSVKGRFTISRDNAKNTVYLQMNSLKPEDTAVYYCNKLVGDDTALYDYWGQGTQVTVSS	high polyreactivity
QVQLVESGGGLVQAGGSLRLSCAASGITFKGNAMGWYRQAPGKERELVAVITWSGGSTYYADSVKGRFTISRDNAKNTVYLQMNSLKPEDTAVYYCAKPWKYGDSQYDYWGQGTQVTVSS	low polyreactivity
